How the values were obtained:
[1] = target: FcγRII (CD32) on K-562 cells (human (endogenous in K-562)) (UniProt P12318); assay: flow cytometry on cells
[2] = target: T1, human FcγRIIa (CD32) expressed on transfected COS-7 cells (human, UniProt P12318 34-317); assay: flow cytometry on cells
T1 sequence (looked up): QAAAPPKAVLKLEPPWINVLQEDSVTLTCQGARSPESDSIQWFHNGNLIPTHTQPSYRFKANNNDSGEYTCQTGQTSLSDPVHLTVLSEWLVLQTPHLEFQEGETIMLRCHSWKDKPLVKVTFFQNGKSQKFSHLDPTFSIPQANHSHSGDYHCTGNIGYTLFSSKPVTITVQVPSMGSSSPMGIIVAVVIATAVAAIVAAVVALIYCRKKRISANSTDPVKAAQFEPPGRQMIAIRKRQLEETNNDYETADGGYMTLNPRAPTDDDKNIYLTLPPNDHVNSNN

Kd [1]: 97 nM
Kd [2]: 66 nM
B1: C-reactive protein (CRP), human (natural protein, UniProt P02741 19-224, looked up)
chain: QTDMSRKAFVFPKESDTSYVSLKAPLTKPLKAFTVCLHFYTELSSTRGYSIFSYATKRQDNEILIFWSKDIGYSFTVGGSEILFEVPEVTVAPVHICTSWESASGIVEFWVDGKPRVRKSLKKGYTVGAEASIILGQEQDSFGGNFEGSQSLVGDIGNVNMWDFVLSPDEINTIYLGGPFSPNVLNWRALKYEVQGEVFTKPQLWP

Reference: paper PMC2195602 (The Journal of Experimental Medicine, 1999)
